# Measured values as given in US20240116985A1 (published 2024).
# Starred links: 1 amine or outer side, 2 acyl side, 3 side chain; linkers in the order of their positions; H or OH if unused. Positions of bridges follow the written chain, without caps; N, C: chain ends. Non-standard residues stand in square brackets, D forms with d. Primed or numbered codes have the meaning given here. No end group written: not given here. *: point of attachment. PyrS2(3) = (S)-3-amino-1-((pent-4-en-1-yloxy)carbonyl)pyrrolidine-3-carboxylic acid, stapling residue, C=CCCCOC(=O)N1CC[C@@](N[*:1])(C(=O)[*:2])C1; PyrS2″ = (S)-3-amino-1-((pent-4-en-1-yloxy)carbonyl)pyrrolidine-3-carboxylic acid (stapling residue), C=CCCCOC(=O)N1CC[C@@](N[*:1])(C(=O)[*:2])C1; PyrS3″ = (S)-3-amino-1-((hex-5-en-1-yloxy)carbonyl)pyrrolidine-3-carboxylic acid (stapling residue), C=CCCCCOC(=O)N1CC[C@@](N[*:1])(C(=O)[*:2])C1; B5(18) = 2,2-bis(4-pentenyl)glycine (2-amino-2-(pent-4-en-1-yl)hept-6-enoic acid), stitching residue, C=CCCCC(CCCC=C)(N[*:1])C(=O)[*:2]; B5(4) = 2,2-bis(4-pentenyl)glycine = 2-amino-2-(pent-4-en-1-yl)hept-6-enoic acid (stitching residue), C=CCCCC(CCCC=C)(N[*:1])C(=O)[*:2]; B5(21) = 2-amino-2-(pent-4-en-1-yl)hept-6-enoic acid, bis(4-pentenyl)glycine (stitching residue), C=CCCCC(CCCC=C)(N[*:1])C(=O)[*:2]; TfeGA = (S)-2-amino-3-((carboxymethyl)(2,2,2-trifluoroethyl)amino)propanoic acid, O=C([C@H](CN(CC(=O)[*:3])CC(F)(F)F)N[*:1])[*:2]; PyrS4 = (S)-3-amino-1-((hept-6-en-1-yloxy)carbonyl)pyrrolidine-3-carboxylic acid, C=CCCCCCOC(=O)N1CC[C@@](N[*:1])(C(=O)[*:2])C1; PyrS2 = (S)-3-amino-1-((pent-4-en-1-yloxy)carbonyl)pyrrolidine-3-carboxylic acid, C=CCCCOC(=O)N1CC[C@@](N[*:1])(C(=O)[*:2])C1; TriAzDap = Dap whose side chain is a 1H-1,2,3-triazol-1-yl bearing the bracketed 4-substituent; B5 = 2-amino-2-(pent-4-en-1-yl)hept-6-enoic acid, C=CCCCC(CCCC=C)(N[*:1])C(=O)[*:2]; B3 = 2-allyl-2-aminopent-4-enoic acid, C=CCC(CC=C)(N[*:1])C(=O)[*:2]; Phe(3-COOH) = N[C@@H](Cc1cccc(C(=O)O)c1)C(=O)O; 2F3MeF = Cc1cccc(C[C@H](N[*:1])C(=O)[*:2])c1F; Phe(2-CF3) = N[C@@H](Cc1ccccc1C(F)(F)F)C(=O)O; Phe(2-CONH2) = NC(=O)c1ccccc1C[C@H](N)C(=O)O; Phe(3,4-F2) = N[C@@H](Cc1ccc(F)c(F)c1)C(=O)O; Phe(2-Cl) = N[C@@H](Cc1ccccc1Cl)C(=O)O; Bta = N[C@@H](Cc1csc2ccccc12)C(=O)O; Lys(iPr) = CC(C)NCCCC[C@H](N)C(=O)O; αAllylPro = C=CC[C@@]1(C(=O)O)CCCN1; tBuAla = CC(C)(C)C[C@H](N)C(=O)O; 3Thi = N[C@@H](Cc1ccsc1)C(=O)O; Cha = N[C@@H](CC1CCCCC1)C(=O)O; PyrS2(4) = not defined here; hSer = N[C@@H](CCO)C(=O)O; MorphCH2 = C1CN(C*)CCO1
# B1: I-1418 (peptide)
# peptide: Ac-[αAllylPro]DL[B5(4)]DDAAFL[PyrS2″][Phe(2-Cl)][Bta]L-NH2
# modifications: staple 1-4, 4-11; also: staple isomer composition of earlier HPLC peak
# notes: Stapled peptide; staple isomer composition of the earlier HPLC peak
# B2: I-1141 (peptide)
# peptide: Ac-[αAllylPro]DF[B5]DDAAFS[PyrS2][Phe(2-Cl)][Bta]T-NH2
# modifications: staple 1-4, 4-11
# notes: Stapled (stitched) peptide by olefin metathesis; E/Z isomer(s) of the staples not assigned
# Target: T1, Bcat-Halo (UniProt P35222 1-781)
# T1 sequence (looked up): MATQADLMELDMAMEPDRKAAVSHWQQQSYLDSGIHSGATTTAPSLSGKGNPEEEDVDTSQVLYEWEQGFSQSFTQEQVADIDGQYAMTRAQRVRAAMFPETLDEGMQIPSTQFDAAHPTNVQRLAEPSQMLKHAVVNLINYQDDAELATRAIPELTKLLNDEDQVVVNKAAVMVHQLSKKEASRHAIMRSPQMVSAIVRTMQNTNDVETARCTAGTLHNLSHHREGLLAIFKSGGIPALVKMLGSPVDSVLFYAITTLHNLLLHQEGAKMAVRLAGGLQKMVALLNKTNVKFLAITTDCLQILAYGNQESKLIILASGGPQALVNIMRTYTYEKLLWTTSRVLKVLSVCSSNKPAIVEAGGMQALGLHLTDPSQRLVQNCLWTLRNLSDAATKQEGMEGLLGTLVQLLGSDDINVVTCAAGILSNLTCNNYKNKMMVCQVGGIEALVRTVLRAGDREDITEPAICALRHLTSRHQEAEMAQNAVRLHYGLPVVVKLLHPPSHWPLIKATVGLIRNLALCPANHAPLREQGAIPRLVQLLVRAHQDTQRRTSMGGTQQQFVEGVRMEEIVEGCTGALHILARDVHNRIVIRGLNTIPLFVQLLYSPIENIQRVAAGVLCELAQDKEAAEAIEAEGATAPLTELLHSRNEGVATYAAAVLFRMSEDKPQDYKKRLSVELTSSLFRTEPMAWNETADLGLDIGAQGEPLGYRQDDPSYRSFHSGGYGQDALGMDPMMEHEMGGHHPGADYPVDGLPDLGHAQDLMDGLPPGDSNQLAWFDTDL
# Experiment: cell-based or functional assay
row,Binder,NanoBRET Abs IC50 [µM]
1,B1,> 20
2,"Ac-[αAllylPro]D[tBuAla][B5(4)]DDAAFL[PyrS2][3Thi][Phe(3,4-F2)]Q-NH2 (staple 1-4, 4-11) [I-1427]",30.4
3,"Ac-[αAllylPro]D[tBuAla][B5(4)]DDAAFL[PyrS2][3Thi][Phe(3,4-F2)]S-NH2 (staple 1-4, 4-11) [I-1428]",40.2
4,"Ac-[αAllylPro]DS[B5(21)]DDAAFL[PyrS2″][3Thi][Bta]L-NH2 (staple 1-4, 4-11) [I-1414]",> 20
5,"Ac-[αAllylPro]D[tBuAla][B5(4)]DDAAFL[PyrS2][3Thi]WS-NH2 (staple 1-4, 4-11) [I-1432]",14.5
6,"Ac-[αAllylPro]D[tBuAla][B5(4)]DDAAFL[PyrS2][3Thi]WQ-NH2 (staple 1-4, 4-11) [I-1431]",14.6

# Target: T2, beta-catenin (in DLD1 TCF/LEF luciferase reporter cells) (UniProt P35222 1-781)
# T2 sequence (looked up): T1 sequence (looked up)
# Experiment: cell-based or functional assay
row,Binder,DLD1 4% Abs IC50 [µM]
1,"[αAllylPro]D[tBuAla][B5(4)]D[Phe(3-COOH)]AAFL[PyrS2(4)][2F3MeF][Bta]Q-NH2 (staple 1-4, 4-11; not fully specified; reading uncertain) [I-1335]",0.9
2,"[αAllylPro]D[tBuAla][B5(4)]D[Phe(3-COOH)]AAFF[PyrS2″][Phe(2-Cl)][Bta]Q-NH2 (staple 1-4, 4-11) [I-1338]",3.4
3,"[αAllylPro]D[tBuAla][B5]D[Phe(3-COOH)]AAFL[PyrS2][Phe(2-Cl)][Bta]S-NH2 (staple 1-4, 4-11) [I-1333]",1.2
4,"[αAllylPro]D[tBuAla][B5(4)]D[Phe(3-COOH)]AAFL[PyrS2″][Phe(2-Cl)][Bta]Q-NH2 (staple 1-4, 4-11) [I-1332]",0.9
5,"[αAllylPro]D[tBuAla][B5(4)]D[Phe(3-COOH)]AAFF[PyrS2″][Phe(2-CF3)][Bta]Q-NH2 (staple 1-4, 4-11) [I-1341]",3.2
6,"[αAllylPro]D[tBuAla][B5]D[Phe(3-COOH)]AAFL[PyrS2][Phe(2-CF3)][Bta]S-NH2 (staple 1-4, 4-11) [I-1336]",0.7

# Target: T3, B-cat-Halo (beta-catenin HaloTag NanoBRET construct expressed in HEK293 cells) (UniProt P35222 1-781)
# T3 sequence (looked up): T1 sequence (looked up)
# Experiment: cell-based or functional assay
row,Binder,NanoBRET Abs IC50 [µM]
1,"Ac-[αAllylPro]D[tBuAla][B5(18)]D[TfeGA]AAF[TriAzDap](MorphCH2)[PyrS2(3)][3Thi][Bta]Q-NH2 (staple 1-4, 4-11; not fully specified) [I-1867]",16.4
2,"Ac-[αAllylPro]D[tBuAla][B5(18)]D[TfeGA]AAF[TriAzDap](SO2MorphCH2)[PyrS2(3)][3Thi][Bta]Q-NH2 (staple 1-4, 4-11; not fully specified) [I-1868]",39.6
3,"Ac-[αAllylPro]D[tBuAla][B5(18)]D[TfeGA]AAF[TriAzDap](CH2Ppz)[PyrS2(3)][3Thi][Bta]Q-NH2 (staple 1-4, 4-11; not fully specified) [I-1863]",37.4
4,"Ac-[αAllylPro]D[tBuAla][B5(18)]D[TfeGA]AAF[TriAzDap](CH2Ppz)[PyrS2(3)][3Thi][Bta]Q-NH2 (staple 1-4, 4-11; not fully specified) [I-1864]",> 20
5,"Ac-[αAllylPro]D[tBuAla][B5(18)]D[TfeGA]AAF[TriAzDap](MorphCH2)[PyrS2(3)][3Thi][Bta]Q-NH2 (staple 1-4, 4-11; not fully specified) [I-1866]",> 20
6,"Ac-[αAllylPro]D[tBuAla][B5(18)]D[TfeGA]AAF[TriAzDap](MorphCH2)[PyrS2(3)][3Thi][Bta]Q-NH2 (staple 1-4, 4-11; not fully specified) [I-1865]",> 20

# Target: T4, B-cat-Halo (beta-catenin HaloTag NanoBRET construct expressed in HEK293 cells) (UniProt P35222 1-781)
# T4 sequence (looked up): T1 sequence (looked up)
# Experiment: cell-based or functional assay
row,Binder,NanoBRET Abs IC50 [µM]
1,"Ac-[αAllylPro]D[tBuAla][B3]DDAAFL[PyrS4][3Thi][Bta]Q-NH2 (staple 1-4, 4-11; also: earlier eluting HPLC peak (staple isomer composition)) [I-2158]",> 20
2,"Ac-[αAllylPro]N[Cha][B5(4)]DQ[Lys(iPr)]AFN[PyrS2″][Phe(2-CONH2)][Bta][hSer]-NH2 (staple 1-4, 4-11) [I-2168]",> 20
3,"Ac-[αAllylPro]N[Cha][B5(4)]DQ[Lys(iPr)]AFN[PyrS2″]F[Bta][hSer]-NH2 (staple 1-4, 4-11) [I-2167]",> 20
4,"Ac-[αAllylPro]D[tBuAla][B3]DDAAFL[PyrS4][3Thi][Bta]Q-NH2 (staple 1-4, 4-11; also: olefin in each staple reduced to -CH2-CH2-) [I-2162]",> 20
5,"Ac-[αAllylPro]D[tBuAla][B3]DDAAFL[PyrS3″][3Thi][Bta]Q-NH2 (staple 1-4, 4-11; also: olefin in each staple reduced to -CH2-CH2-) [I-2161]",> 20
6,"Ac-[αAllylPro]D[tBuAla][B3]DDAAFL[PyrS4][3Thi][Bta]Q-NH2 (staple 1-4, 4-11; also: later eluting HPLC peak (staple isomer composition)) [I-2159]",> 20

# Target: T5, full-length beta-Catenin (Uniprot ID P35222) (Homo sapiens (Human), UniProt P35222 2-781)
# T5 construct: also called bCat; B-Catenin
# T5 sequence: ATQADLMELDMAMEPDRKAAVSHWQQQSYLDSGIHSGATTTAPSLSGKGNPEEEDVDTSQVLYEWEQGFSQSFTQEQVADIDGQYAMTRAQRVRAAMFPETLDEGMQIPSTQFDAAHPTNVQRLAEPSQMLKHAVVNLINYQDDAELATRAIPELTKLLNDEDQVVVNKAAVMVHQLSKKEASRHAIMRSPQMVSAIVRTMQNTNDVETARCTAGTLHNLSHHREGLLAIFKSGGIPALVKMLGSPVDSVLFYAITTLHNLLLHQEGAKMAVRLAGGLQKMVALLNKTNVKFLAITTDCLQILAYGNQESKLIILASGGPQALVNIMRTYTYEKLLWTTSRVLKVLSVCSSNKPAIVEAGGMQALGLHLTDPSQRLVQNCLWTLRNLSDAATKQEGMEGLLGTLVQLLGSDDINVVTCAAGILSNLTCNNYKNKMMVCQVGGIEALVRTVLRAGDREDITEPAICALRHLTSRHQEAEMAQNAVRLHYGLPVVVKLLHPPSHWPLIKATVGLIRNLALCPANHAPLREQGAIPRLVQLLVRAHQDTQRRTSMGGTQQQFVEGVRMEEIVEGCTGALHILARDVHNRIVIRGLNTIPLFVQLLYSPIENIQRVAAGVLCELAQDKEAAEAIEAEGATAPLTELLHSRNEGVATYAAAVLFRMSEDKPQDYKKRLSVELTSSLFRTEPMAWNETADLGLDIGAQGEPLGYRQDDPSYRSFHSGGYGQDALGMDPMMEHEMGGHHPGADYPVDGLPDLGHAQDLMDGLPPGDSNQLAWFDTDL
# Experiment: fluorescence polarization competition, 5FAM-TCF4 10-53 probe on full-length beta-catenin
# Procedure: The plate was incubated protected from light for 60 minutes at 20° C. prior to read. Reads were performed on a CLARIOstar plate reader (BMG Labtech) in duplicate, and data were fitted to a 1:1 binding model with hill slope using an in-house script. All provided concentrations are final concentrations.
row,Binder,EC50 [µM]
1,B2,0.013
